Five molecules from patent US20210388065A1 (published 2021) can be followed below.

Assay [1] concerns the target T1, SARS-CoV-2 Spike protein (Receptor Binding Domain, RBD) (UniProt P0DTC2 331-524). The assay can be described thus: ELISA. (In general: An ELISA detects its analyte on a solid surface through an enzyme-linked reagent.)
Assay [2] has as its target T1, SARS-CoV-2 Spike protein (Receptor …). As to the kind of experiment: ELISA. This is another data set of the same source.

B1: 105-43 antibody (antibody, V domains shown)
VH: EVQLVESGGGLVQPGGSLRLSCAASGFTFSSYDMHWVRQATGKGLEWISAIGTTGDIYYADSVKGRFTISRENAENSLYLQMNSLRAGDTAVYYCARYRGAFDVWGQGTMVTVSS
VL: EIVMTQSPVTLSLSPGERATLSCRASQSVGTYLAWYQQKPGQAPRLLIYDASNRATRIPARFSGSGSGTDFTLTISSLEPEDFAVYYCQQGSNWPLTFGGGTKVEIK
For orientation: IC50 means the midpoint of a concentration-inhibition curve. Higher therefore signals lower potency. One may read the EC50 as the concentration that produces a half-maximal response. A high value points to a less potent agent. In turn, B1 came in with an IC50 in assay [1] of 59 nM. In assay [2], it took 12.1 nM to reach a half-maximal effect (EC50).

B2: 105-38 antibody (antibody, V domains shown)
VH: EVQLVESGGGLVQPGGSLRLSCAASGFTFSSYWMHWVRQAPGKGLVWVSRINSDGSSTSYADSVKGRFTISRDNAKNTLYLQMNSLRAEDTAVYYCARVQWLRGEFDYWGQGTLVTVSS
VL: DVVLTQPHSVSESPGKTVTISCTGSSGSIASNYVQWYQQRPGSAPTTVIYEDNQRPSGVPDRFSGSIDSSSNSASLTISGLKTEDEADYYCQSYDSSTDVVFGGGTELTVL
The molecule B2 displayed an IC50 in assay [1] of 0.598 nM. Further, in assay [2], the EC50 was 0.425 nM.

B3: 414-3-2 antibody (antibody, V domains shown)
VH: QVQLVESGGGVVQPGRSLRLSCAASGFTFSSYAMHWVRQAPGKGLEWVALISYDGSNKYYADSVKGRFTISRDNSKNTLYLQMNSLRAEDTAVYYCARDGGGWFDPWGQGTLVTVSS
VL: QTVVTQPASVSGSPGQSITISCTGTSSDVGGYNYVSWYQQHPGKAPKLMIYDVSKRPSGVSNRFSGSKSGNTASLTISGLQAEDEADYYCSSYTSSSPWVFGGGTELTVL
In assay [2], B3 came in with an EC50 of 6.66 nM.

B4: 105-9 antibody (antibody, V domains shown)
VH: EVQLVESGGGLVKPGRSLRLSCTASGFTFGDYAMSWFRQAPGKGLEWVGFIRSKAYGWTTQYAASVKGRFTISRDDSKSIAYLQMKSLNSEDTAVYYCTRDPWGTTYFDYWGQGTLVTVSS
VL: EIVMTQSPATLSVSPGERATLSCRASQSVSSNLAWYQQKPGQGPRLLIYGASTRATGVPARFSGSGSGTDFTLTISSLQSEDFAIYYCQHYNNWFTFGQGTKVEIK
In turn, B4 yielded an IC50 in assay [1] of 25.2 nM. Besides, the EC50 in assay [2] worked out at 15.1 nM.

B5: 414-1 antibody (antibody, V domains shown)
VH: QVQLVQSGAEVKKPGASVKVSCKASGYTFTSYYMHWVRQAPGQGLEWMGIINPSGGSTSYAQKFQGRVTMTRDTSTSTVYMELSSLRSEDTAVYYCARGALGCSSTSCYPNNFDYWGQGTLVTVSS
VL: not shown
As to B5, the half-maximal inhibitory concentration (IC50) in assay [1] worked out at 6.68 nM. In assay [2], this molecule came in with a concentration for a half-maximal effect (EC50) of 1.26 nM.
